Test results published in article PMC6521605, “Structural insights into nanoRNA degradation by human Rexo2” (RNA, 2019).

Key:
[1] = target: T1, Rexo2 H194A H194A (Homo sapiens) (UniProt Q9Y3B8); assay: fluorescence polarization; conditions: 50 mM EDTA, Hill coefficient 2.3, FP: 10 nM Cy3-oligonucleotide, 50 mM Tris-HCl pH 7.5, 50 mM NaCl, 15 min at 25 C, crystals: 0.2 M ammonium citrate dibasic, 20% PEG 3350, pH 5.1 …
T1 sequence: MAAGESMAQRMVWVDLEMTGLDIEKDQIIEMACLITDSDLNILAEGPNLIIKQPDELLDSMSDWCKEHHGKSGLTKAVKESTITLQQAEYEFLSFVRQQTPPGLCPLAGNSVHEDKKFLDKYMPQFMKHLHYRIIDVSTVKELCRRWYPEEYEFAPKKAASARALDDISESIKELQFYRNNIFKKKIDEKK

Rexo2 wild type = target: T2, Rexo2 wild type (Homo sapiens, UniProt Q9Y3B8 33-223); assay: X-ray crystallography; no Mg2+ added, two endogenous Mg2+ at partial occupancy; pH 5.1; FP: 10 nM Cy3-oligonucleotide, 50 mM Tris-HCl pH 7.5, 50 mM NaCl, 50 mM EDTA, 15 min at 25 C; crystals: 0.2 M ammonium citrate dibasic, 20% PEG 3350, pH 5.1, room temperature; conditions: protein: recombinant; tags: N-terminal 6xHis removed by thrombin; chain copies: 2; single strand
T2 sequence: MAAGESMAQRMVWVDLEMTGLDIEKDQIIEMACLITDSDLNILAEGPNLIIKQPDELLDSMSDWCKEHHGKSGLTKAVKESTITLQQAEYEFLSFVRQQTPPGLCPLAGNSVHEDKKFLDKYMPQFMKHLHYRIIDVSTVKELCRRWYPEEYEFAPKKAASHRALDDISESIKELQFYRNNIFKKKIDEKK

Rexo2 D199A = target: T3, Rexo2 D199A (Homo sapiens, UniProt Q9Y3B8 33-223, D199A); assay: X-ray crystallography; 2 Mg2+ in active site; pH 5.1; FP: 10 nM Cy3-oligonucleotide, 50 mM Tris-HCl pH 7.5, 50 mM NaCl, 50 mM EDTA, 15 min at 25 C; crystals: 0.2 M ammonium citrate dibasic, 20% PEG 3350, pH 5.1, room temperature; conditions: protein: recombinant; tags: N-terminal 6xHis removed by thrombin; chain copies: 2; single strand
T3 sequence: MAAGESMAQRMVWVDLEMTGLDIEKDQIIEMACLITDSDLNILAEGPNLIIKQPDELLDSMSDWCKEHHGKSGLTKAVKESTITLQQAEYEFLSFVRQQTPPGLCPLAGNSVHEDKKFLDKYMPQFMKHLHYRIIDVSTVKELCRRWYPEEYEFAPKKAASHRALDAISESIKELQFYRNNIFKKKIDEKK

Rexo2 H194A [2] = target: T4, Rexo2 H194A (Homo sapiens, UniProt Q9Y3B8 33-223, H194A); assay: fluorescence polarization; 50 mM EDTA; FP: 10 nM Cy3-oligonucleotide, 50 mM Tris-HCl pH 7.5, 50 mM NaCl, 50 mM EDTA, 15 min at 25 C; crystals: 0.2 M ammonium citrate dibasic, 20% PEG 3350, pH 5.1, room temperature; conditions: protein: recombinant; tags: N-terminal 6xHis removed by thrombin; chain copies: 2; label: 5'-Cy3; single strand
T4 sequence: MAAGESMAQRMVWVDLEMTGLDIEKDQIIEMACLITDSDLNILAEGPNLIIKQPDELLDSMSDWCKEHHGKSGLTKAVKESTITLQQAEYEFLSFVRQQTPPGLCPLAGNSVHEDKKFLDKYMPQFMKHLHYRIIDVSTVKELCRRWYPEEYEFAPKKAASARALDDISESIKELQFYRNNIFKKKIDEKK

Rexo2 H194A [3] = target: T4, Rexo2 H194A; assay: fluorescence polarization; 50 mM EDTA; Hill coefficient 1.4; FP: 10 nM Cy3-oligonucleotide, 50 mM Tris-HCl pH 7.5, 50 mM NaCl, 50 mM EDTA, 15 min at 25 C; crystals: 0.2 M ammonium citrate dibasic, 20% PEG 3350, pH 5.1, room temperature; conditions: protein: recombinant; tags: N-terminal 6xHis removed by thrombin; chain copies: 2; label: 5'-Cy3; single strand
[4] = target: the molecule itself; assay: SEC-MALS; purified His-tag-free Rexo2 (residues 33-223); MW of ~44 kDa against 22.436 kDa calculated for a protomer; conditions not given
Rexo2 H194A [5] = target: T4, Rexo2 H194A; assay: fluorescence polarization; 50 mM EDTA; Hill coefficient 3.5; Results sentence calls it 12-nt, legend and Methods 11-nt; FP: 10 nM Cy3-oligonucleotide, 50 mM Tris-HCl pH 7.5, 50 mM NaCl, 50 mM EDTA, 15 min at 25 C; crystals: 0.2 M ammonium citrate dibasic, 20% PEG 3350, pH 5.1, room temperature; conditions: protein: recombinant; tags: N-terminal 6xHis removed by thrombin; chain copies: 2; label: 5'-Cy3; single strand

2-nt RNA A2
Kd [1]: 24.4 nM

TTTTT (ssDNA) [T5 DNA (crystal)]
binding result (Rexo2 wild type): binds

TTTTTTTTTT (ssDNA) [T10 DNA (crystal)]
binding result (Rexo2 D199A): binds

UUUUUUUUUUUU (ssRNA) [U12 RNA]
binding result (Rexo2 D199A): binds

TTTTTTTTTTTT (ssDNA) [12-nt DNA T12]
Kd (Rexo2 H194A [2]): 52.2 nM

AAAAA (ssRNA) [5-nt RNA A5]
Kd (Rexo2 H194A [3]): 52.1 nM

B1: human RNA exoribonuclease 2 (Rexo2), wild type, residues 33-223 (enzyme, UniProt Q9Y3B8 33-223, looked up)
chain: MAAGESMAQRMVWVDLEMTGLDIEKDQIIEMACLITDSDLNILAEGPNLIIKQPDELLDSMSDWCKEHHGKSGLTKAVKESTITLQQAEYEFLSFVRQQTPPGLCPLAGNSVHEDKKFLDKYMPQFMKHLHYRIIDVSTVKELCRRWYPEEYEFAPKKAASHRALDDISESIKELQFYRNNIFKKKIDEKK
notes: His tag removed with Thrombin (pET28a, NdeI/SalI); a few vector residues may be left at the N-terminus after cleavage (surmise); Calculated MW of a protomer 22.436 kDa; also called wild-type Rexo2; small fragment nuclease; source: E. coli BL21-CodonPlus (DE3) RIPL, purified (HisTrap HP, Thrombin, HisTrap flow-through, Superdex 75); not shown: His6, N-terminal, cleaved
stoichiometry N [4]: 2

B2: human Rexo2-D199A mutant, residues 33-223 (enzyme, UniProt Q9Y3B8 33-223, looked up)
chain: MAAGESMAQRMVWVDLEMTGLDIEKDQIIEMACLITDSDLNILAEGPNLIIKQPDELLDSMSDWCKEHHGKSGLTKAVKESTITLQQAEYEFLSFVRQQTPPGLCPLAGNSVHEDKKFLDKYMPQFMKHLHYRIIDVSTVKELCRRWYPEEYEFAPKKAASHRALDAISESIKELQFYRNNIFKKKIDEKK
notes: Made by site-directed mutagenesis from the wild-type construct; PDB 6J7Y holds the wild-type parent; source: E. coli BL21-CodonPlus (DE3) RIPL, purified (HisTrap HP, Thrombin, HisTrap flow-through, Superdex 75); not shown: His6, N-terminal, cleaved
stoichiometry N [4]: 2

B3: human Rexo2-H194A mutant, residues 33-223 (enzyme, UniProt Q9Y3B8 33-223, looked up)
chain: MAAGESMAQRMVWVDLEMTGLDIEKDQIIEMACLITDSDLNILAEGPNLIIKQPDELLDSMSDWCKEHHGKSGLTKAVKESTITLQQAEYEFLSFVRQQTPPGLCPLAGNSVHEDKKFLDKYMPQFMKHLHYRIIDVSTVKELCRRWYPEEYEFAPKKAASARALDDISESIKELQFYRNNIFKKKIDEKK
notes: human Rexo2, residues 33-223, general base residue H194 replaced by Ala; Made by site-directed mutagenesis from the wild-type construct; PDB 6J7Y holds the wild-type parent; also called H194A Rexo2 mutant; source: E. coli BL21-CodonPlus (DE3) RIPL, purified (HisTrap HP, Thrombin, HisTrap flow-through, Superdex 75); not shown: His6, N-terminal, cleaved
stoichiometry N [4]: 2

TTT (ssDNA) [3-nt DNA T3]
Kd (Rexo2 H194A [2]): 29.9 nM

AGCGCAGUACC (ssRNA) [11-nt RNA]
Kd (Rexo2 H194A [5]): 44.3 nM

TTTTT (ssDNA) [5-nt DNA T5 (Cy3)]
Kd (Rexo2 H194A [2]): 51.8 nM
